Test results from patent publication US20220340635A1, “FUSION PROTEIN FOR TREATMENT OF METABOLIC DISEASE” (ZHEJIANG DOER BIOLOGICS CORPORATION, priority 2019, published 2022).
No end group written: not given here.

Experiments:
[1] = target: Recombinant DPP-IV enzyme (Homo sapiens, UniProt P27487); assay: DPP-IV enzyme resistance (GCGR bioactivity after DPP-IV treatment); format: in vitro ADME; conditions: 5 μM protein, 10 nM recombinant DPP-IV, 37° C., 24 hours; GCGR bioactivity after/before treatment
Experimental: The purified fusion protein was dissolved in 10 mM of HEPES buffer (containing 0.05 mg/ml BSA) to a final concentration of 5 μM. Recombinant DPP-IV enzyme (final concentration of 10 nM) was added and incubated at 37° C. for 24 hours before detection of GCGR bioactivity. Activity retention rate=(activity after DPP-IV enzyme treatment/activity before DPP-IV enzyme treatment)×100%.

[2] = in vivo; cited from earlier work

Chain of Recombinant DPP-IV enzyme (P27487 whole entry, species assumed, the tested form may be a part): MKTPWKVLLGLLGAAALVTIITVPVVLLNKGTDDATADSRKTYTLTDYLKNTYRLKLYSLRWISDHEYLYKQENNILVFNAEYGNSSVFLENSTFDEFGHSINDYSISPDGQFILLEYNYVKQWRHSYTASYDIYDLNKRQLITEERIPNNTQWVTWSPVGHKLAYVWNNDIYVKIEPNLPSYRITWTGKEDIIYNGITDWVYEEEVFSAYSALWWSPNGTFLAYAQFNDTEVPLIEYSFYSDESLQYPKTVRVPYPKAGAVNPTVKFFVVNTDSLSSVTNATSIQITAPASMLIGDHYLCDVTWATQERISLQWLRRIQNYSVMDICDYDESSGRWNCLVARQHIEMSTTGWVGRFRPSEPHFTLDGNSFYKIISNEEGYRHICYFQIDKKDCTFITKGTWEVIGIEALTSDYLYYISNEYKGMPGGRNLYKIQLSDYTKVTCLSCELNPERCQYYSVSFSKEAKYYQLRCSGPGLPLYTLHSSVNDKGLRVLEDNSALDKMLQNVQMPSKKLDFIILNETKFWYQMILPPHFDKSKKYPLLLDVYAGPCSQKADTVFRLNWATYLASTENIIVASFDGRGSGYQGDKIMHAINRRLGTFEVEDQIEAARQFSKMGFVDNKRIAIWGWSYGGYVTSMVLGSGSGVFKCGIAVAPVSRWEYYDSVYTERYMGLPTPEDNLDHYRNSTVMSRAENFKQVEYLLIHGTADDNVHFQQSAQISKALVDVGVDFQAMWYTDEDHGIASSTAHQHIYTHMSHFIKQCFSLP

Substance	Activity preservation rate (%) [1] [%]	Anti-drug antibody positive rate [2] [%]
H-D-Ser-QGTFTSDYSKYLDSQAAQDFVQWLMNGGPSSGAPPPS (not fully specified (N-terminus)) [GDSerGS, control]	99.2	
Taspoglutide		49
